First the molecules themselves.
B1: Storkhead-box protein 2, residues 64 to 141; numbered along this chain, Q9P2F5 (parent)
chain: SPISQSQFIPLGEILCLAISAMNSARKPVTQEALMEHLTTCFPGVPTPSQEILRHTLNTLVRERKIYPTPDGYFIVTP

± gives the uncertainty stated by the source.

Variants of B1 are the subject of this data set. Nature of the data set: abundance fitness (aPCA) (normalised: wild type 0, dead -1); higher = more abundant; growth selection in yeast, the domain comes from the species named. The settings on record: Homo sapiens.
SPISQSQFIPLGEILCLAGSAMNSARKPVTQEALMEHLTTCFPGVPTPSQEILRHTLNTLVRERKIYPTPDGYFIVTP: the abundance fitness is -1.07 ± 0.12.
As for SPISQSQFIPLGEILCLAFSAMNSARKPVTQEALMEHLTTCFPGVPTPSQEILRHTLNTLVRERKIYPTPDGYFIVTP, the figure is -0.317 ± 0.15.
As for SPISQSQFIPLGEILCLAHSAMNSARKPVTQEALMEHLTTCFPGVPTPSQEILRHTLNTLVRERKIYPTPDGYFIVTP, the figure is -0.852 ± 0.44.
SPISQSQFIPLGEILCLAESAMNSARKPVTQEALMEHLTTCFPGVPTPSQEILRHTLNTLVRERKIYPTPDGYFIVTP: the abundance fitness was -1 ± 0.15.
Under SPISQSQFIPLGEILCLAASAMNSARKPVTQEALMEHLTTCFPGVPTPSQEILRHTLNTLVRERKIYPTPDGYFIVTP stands -0.341 ± 0.055; under SPISQSQFIPLGEILCLACSAMNSARKPVTQEALMEHLTTCFPGVPTPSQEILRHTLNTLVRERKIYPTPDGYFIVTP, -0.21 ± 0.067; under SPISQSQFIPLGEILCLFISAMNSARKPVTQEALMEHLTTCFPGVPTPSQEILRHTLNTLVRERKIYPTPDGYFIVTP, -0.446 ± 0.098.
As for SPISQSQFIPLGEILCLCISAMNSARKPVTQEALMEHLTTCFPGVPTPSQEILRHTLNTLVRERKIYPTPDGYFIVTP, the figure is -0.001 ± 0.076.
Regarding SPISQSQFIPLGEILCLSISAMNSARKPVTQEALMEHLTTCFPGVPTPSQEILRHTLNTLVRERKIYPTPDGYFIVTP, the abundance fitness was -0.197 ± 0.066.
As to SPISQSQFIPLGEILCLVISAMNSARKPVTQEALMEHLTTCFPGVPTPSQEILRHTLNTLVRERKIYPTPDGYFIVTP, the abundance fitness was -0.163 ± 0.062.
Under SPISQSQFIPLGEILCLMISAMNSARKPVTQEALMEHLTTCFPGVPTPSQEILRHTLNTLVRERKIYPTPDGYFIVTP stands -0.593 ± 0.17; under SPISQSQFIPLGEILCLEISAMNSARKPVTQEALMEHLTTCFPGVPTPSQEILRHTLNTLVRERKIYPTPDGYFIVTP, -0.102 ± 0.081.
In the case of SPISQSQFIPLGEILCLKISAMNSARKPVTQEALMEHLTTCFPGVPTPSQEILRHTLNTLVRERKIYPTPDGYFIVTP, the abundance fitness is -0.282 ± 0.11.
As for SPISQSQFIPLGEILCLWISAMNSARKPVTQEALMEHLTTCFPGVPTPSQEILRHTLNTLVRERKIYPTPDGYFIVTP, the figure is -0.496 ± 0.062; as for SPISQSQFIPLGEILCLPISAMNSARKPVTQEALMEHLTTCFPGVPTPSQEILRHTLNTLVRERKIYPTPDGYFIVTP, -0.887 ± 0.1; as for SPISQSQFIPLGEILCLNISAMNSARKPVTQEALMEHLTTCFPGVPTPSQEILRHTLNTLVRERKIYPTPDGYFIVTP, -0.376 ± 0.21.
As for SPISQSQFIPLGEILCLIISAMNSARKPVTQEALMEHLTTCFPGVPTPSQEILRHTLNTLVRERKIYPTPDGYFIVTP, the figure is -0.308 ± 0.16; as for SPISQSQFIPLGEILCLRISAMNSARKPVTQEALMEHLTTCFPGVPTPSQEILRHTLNTLVRERKIYPTPDGYFIVTP, -0.148 ± 0.049.
Turning to SPISQSQFIPLGEILCLGISAMNSARKPVTQEALMEHLTTCFPGVPTPSQEILRHTLNTLVRERKIYPTPDGYFIVTP, the abundance fitness was -0.095 ± 0.048.
Under SPISQSQFIPLGEILCLQISAMNSARKPVTQEALMEHLTTCFPGVPTPSQEILRHTLNTLVRERKIYPTPDGYFIVTP stands -0.26 ± 0.13; under SPISQSQFIPLGEILCLDISAMNSARKPVTQEALMEHLTTCFPGVPTPSQEILRHTLNTLVRERKIYPTPDGYFIVTP, -1.1 ± 0.38; under SPISQSQFIPLGEILCLTISAMNSARKPVTQEALMEHLTTCFPGVPTPSQEILRHTLNTLVRERKIYPTPDGYFIVTP, -0.099 ± 0.081.
Under SPISQSQFIPLGEILCLHISAMNSARKPVTQEALMEHLTTCFPGVPTPSQEILRHTLNTLVRERKIYPTPDGYFIVTP stands -0.125 ± 0.16.
As for SPISQSQFIPLGEILCEAISAMNSARKPVTQEALMEHLTTCFPGVPTPSQEILRHTLNTLVRERKIYPTPDGYFIVTP, the figure is 0.039 ± 0.059; as for SPISQSQFIPLGEILCSAISAMNSARKPVTQEALMEHLTTCFPGVPTPSQEILRHTLNTLVRERKIYPTPDGYFIVTP, 0.008 ± 0.042.
Regarding SPISQSQFIPLGEILCTAISAMNSARKPVTQEALMEHLTTCFPGVPTPSQEILRHTLNTLVRERKIYPTPDGYFIVTP, the abundance fitness turned out to be 0.043 ± 0.066.
With SPISQSQFIPLGEILCWAISAMNSARKPVTQEALMEHLTTCFPGVPTPSQEILRHTLNTLVRERKIYPTPDGYFIVTP, the abundance fitness was -0.129 ± 0.05.
As for SPISQSQFIPLGEILCFAISAMNSARKPVTQEALMEHLTTCFPGVPTPSQEILRHTLNTLVRERKIYPTPDGYFIVTP, the figure is -0.096 ± 0.093; as for SPISQSQFIPLGEILCPAISAMNSARKPVTQEALMEHLTTCFPGVPTPSQEILRHTLNTLVRERKIYPTPDGYFIVTP, -0.092 ± 0.052.
Under SPISQSQFIPLGEILCIAISAMNSARKPVTQEALMEHLTTCFPGVPTPSQEILRHTLNTLVRERKIYPTPDGYFIVTP stands 0.133 ± 0.2; under SPISQSQFIPLGEILCGAISAMNSARKPVTQEALMEHLTTCFPGVPTPSQEILRHTLNTLVRERKIYPTPDGYFIVTP, -0.016 ± 0.036.
As for SPISQSQFIPLGEILCNAISAMNSARKPVTQEALMEHLTTCFPGVPTPSQEILRHTLNTLVRERKIYPTPDGYFIVTP, the figure is 0.079 ± 0.087; as for SPISQSQFIPLGEILCHAISAMNSARKPVTQEALMEHLTTCFPGVPTPSQEILRHTLNTLVRERKIYPTPDGYFIVTP, 0.034 ± 0.11.
SPISQSQFIPLGEILCVAISAMNSARKPVTQEALMEHLTTCFPGVPTPSQEILRHTLNTLVRERKIYPTPDGYFIVTP: the abundance fitness was -0.059 ± 0.043.
As for SPISQSQFIPLGEILCMAISAMNSARKPVTQEALMEHLTTCFPGVPTPSQEILRHTLNTLVRERKIYPTPDGYFIVTP, the figure is -0.041 ± 0.07.

Source of the values: the Human Domainome abundance scans (Beltran et al. 2025).
